Assay results reported in US20050244864A1, “Development and use of fluorescent probes of unbound analytes” (priority 2004, published 2005).

Tests used:
Type in all cases: binding
[1] = Probe fluorescence ratio response to linoleate:BSA complex, relative to ADIFAB2 (ΔR/ΔRAD2); details: fluorescence response (R-Ro) relative to ADIFAB2; linoleate
Procedure: (§1) The intensity ratio (“R” value) for a given probe is determined. The ratio is calculated using the following formula: R=Fλ1/Fλ2 wherein, Fλ1, is the measured fluorescence intensities (intensity of sample with probe present minus intensity of sample without probe present) at wavelength 1 and Fλ2 is the measured fluorescence intensities (intensity of sample with probe present minus intensity of sample without probe present) at wavelength 2. Then, for a given probe, ΔR, the difference in R value between the measurement in the presence of the analyte and in the absence of the analyte, is calculated as follows: ΔR=R+analyte−R0 The ΔR value for a given probe is then compared to a reference probe, for example, ADIFAB or ADIFAB2, by ΔR/ΔRreference. This value is an indication of how dissimilar the new probe (derived by mutation of the template) is to the reference. By this method, probes with new and useful characteristics may be identified. Measurements of fluorescence intensities are obtained using standard techniques.
(§2) Mutant probes were screened in 96-well plates by fluorescence response to five fatty acids: arachidonate, linolenate, linoleate, oleate, and palmitate. Each fatty acid was prepared as a complex with BSA by slow addition of 50 mM stocks of fatty acid sodium salts at pH 11 to 600 μM BSA in HEPES buffer. During the formation of complexes, 15 μL aliquots were periodically measured with the reference probe, ADIFAB2, to determine the ΔR value upon excitation at 375 nm and fluorescence emission at 550 and 457 nm using a Fluorolog-3 spectrofluorometer (Jobin Yvon) (Richieri et al, Molecular and Cellular Biochemistry (1999), 192:87-94 & Richieri et al, J. Biol. Chem. (1996), 271:31068-31074). Complexes were prepared such that the final ΔR was approximately 0.4 which correspond to [FFAu] ranging from 100 to 1000 nM depending on FFA type. These complexes buffer or clamp the FFAu levels at fixed values and therefore ensure the accurate comparison of different probes with the same FFAu concentrations. In contrast, addition of FFAu alone (i.e. uncomplexed FFA) introduces considerable uncertainty in comparing different probes because the FFAu level will be affected by binding to the dispensing device, the walls of the multi-well plates and to the probe itself. Thus, the terms “buffer” and “clamp” as used in this particular context herein are taken to mean the ability of a carrier macromolecule to complex with an unbound metabolite so that the unbound metabolite is presented accurately for measurement purposes and is prevented from non-specific binding such as binding to laboratory apparatus.
(§3) Plates were prepared and read in two stages. First, complexes and fatty acid free BSA were diluted to 6 μM BSA in HEPES and added to the 96-well plate at 300 μL per well. A MultiProbe II HT (Perkin Elmer) (an automated liquid handling system) was used to facilitate plate preparation for high throughput screening, but any automated or manual pipetting system will suffice. The background fluorescence was then measured at the same wavelengths as used for ADIFAB2 using a Fluorolog-3 spectrofluorometer with an external Micromax 384 fluorescence plate reader (Jobin Yvon). In the second stage, 30 μL aliquots of the mutant probes were added to multiple wells of the plate, one for each fatty acid and one with fatty acid free BSA only, and the fluorescence intensity at each wavelength was again measured on the plate reader. After subtraction of the background fluorescence, the fluorescence ratio of each well was calculated.
(§4) The fluorescence response was quantitatively compared to ADIFAB2 to search for changes in magnitude and fatty acid profile; for example the response to one fatty acid relative to another. For each probe the ratio differences (AR) between wells with each fatty acid compared to a corresponding well with fatty acid free BSA were recorded. […]

[2] = Probe fluorescence ratio response to arachidonate:BSA complex, relative to ADIFAB2 (ΔR/ΔRAD2); details: fluorescence response (R-Ro) relative to ADIFAB2; arachidonate
Procedure: as §1, §2, §3, §4

[3] = Probe fluorescence ratio response to palmitate:BSA complex, relative to ADIFAB2 (ΔR/ΔRAD2); details: fluorescence response (R-Ro) relative to ADIFAB2; palmitate
Procedure: as §1, §2, §3, §4

[4] = Probe fluorescence ratio response to linolenate:BSA complex, relative to ADIFAB2 (ΔR/ΔRAD2); details: fluorescence response (R-Ro) relative to ADIFAB2; linolenate
Procedure: as §1, §2, §3, §4

[5] = Probe fluorescence ratio response to oleate:BSA complex, relative to ADIFAB2 (ΔR/ΔRAD2); details: fluorescence response (R-Ro) relative to ADIFAB2; oleate
Procedure: as §1, §2, §3, §4

Molecule	ΔR/ΔRAD2 LA [1]	ΔR/ΔRAD2 AA [2]	ΔR/ΔRAD2 PA [3]	ΔR/ΔRAD2 LNA [4]	ΔR/ΔRAD2 OA [5]
Y117S, L72A: acrylodan-labeled rI-FABP mutein Y117S, L72A (protein) AFDGTWKVDRNENYEKFMEKMGINVVKRKLGAHDNLKLTITQEGNKFTVKESSNFRNIDVVFELGVDFAYSAADGTELTGTWTMEGNKLVGKFKRVDNGKELIAVREISGNELIQTSTYEGVEAKRIFKKE	1.42	1.35	0.55	1.07	1.19
L1P1 F7: acrylodan-labeled rI-FABP mutein: Y14 L, L38 M, L72 wt, Y117 F (protein, UniProt P02693 2-132, looked up, variant Y14L L38M Y117F, acrylodan label, acrylodan-labeled rI-FABP mutein: Y14 L, L38 M, L72 wt, Y117 F) Fatty acid-binding protein, …: AFDGTWKVDRNENLEKFMEKMGINVVKRKLGAHDNLKMTITQEGNKFTVKESSNFRNIDVVFELGVDFAYSLADGTELTGTWTMEGNKLVGKFKRVDNGKELIAVREISGNELIQTFTYEGVEAKRIFKKE	0.9	0.9	0.5	1.0	0.5
L72G: acrylodan-labeled rI-FABP mutein L72G (protein) AFDGTWKVDRNENYEKFMEKMGINVVKRKLGAHDNLKLTITQEGNKFTVKESSNFRNIDVVFELGVDFAYSGADGTELTGTWTMEGNKLVGKFKRVDNGKELIAVREISGNELIQTYTYEGVEAKRIFKKE	0.48	0.62	0.26	0.48	0.52
L1P7 B11: acrylodan-labeled rI-FABP mutein: Y14 I, L38 I, L72 V, Y117 wt (protein, UniProt P02693 2-132, looked up, variant Y14I L38I L72V, acrylodan label, acrylodan-labeled rI-FABP mutein: Y14 I, L38 I, L72 V, Y117 wt) Fatty acid-binding protein, …: AFDGTWKVDRNENIEKFMEKMGINVVKRKLGAHDNLKITITQEGNKFTVKESSNFRNIDVVFELGVDFAYSVADGTELTGTWTMEGNKLVGKFKRVDNGKELIAVREISGNELIQTYTYEGVEAKRIFKKE	0.9	0.7	0.8	0.9	0.4
L1P12 G10: acrylodan-labeled rI-FABP mutein: Y14 I, L38 wt, L72 wt, Y117 wt (protein, UniProt P02693 2-132, looked up, variant Y14I, acrylodan label) Fatty acid-binding protein, …: AFDGTWKVDRNENIEKFMEKMGINVVKRKLGAHDNLKLTITQEGNKFTVKESSNFRNIDVVFELGVDFAYSLADGTELTGTWTMEGNKLVGKFKRVDNGKELIAVREISGNELIQTYTYEGVEAKRIFKKE	0.9	0.8	0.8	1.0	0.5
L1P3 D6: acrylodan-labeled rI-FABP mutein: Y14 L, L38 wt, L72 wt, Y117 wt (protein, UniProt P02693 2-132, looked up, variant Y14L, acrylodan label) Fatty acid-binding protein, …: AFDGTWKVDRNENLEKFMEKMGINVVKRKLGAHDNLKLTITQEGNKFTVKESSNFRNIDVVFELGVDFAYSLADGTELTGTWTMEGNKLVGKFKRVDNGKELIAVREISGNELIQTYTYEGVEAKRIFKKE	0.8	0.9	0.5	0.9	0.5
L1P2 F7: acrylodan-labeled rI-FABP mutein: Y14 I, L38 wt, L72 G, Y117 V (protein, UniProt P02693 2-132, looked up, variant Y14I L72G Y117V, acrylodan label, acrylodan-labeled rI-FABP mutein: Y14 I, L38 wt, L72 G, Y117 V) Fatty acid-binding protein, …: AFDGTWKVDRNENIEKFMEKMGINVVKRKLGAHDNLKLTITQEGNKFTVKESSNFRNIDVVFELGVDFAYSGADGTELTGTWTMEGNKLVGKFKRVDNGKELIAVREISGNELIQTVTYEGVEAKRIFKKE	0.6	0.9	0.1	0.5	0.3
L72M: acrylodan-labeled rI-FABP mutein L72M (protein) AFDGTWKVDRNENYEKFMEKMGINVVKRKLGAHDNLKLTITQEGNKFTVKESSNFRNIDVVFELGVDFAYSMADGTELTGTWTMEGNKLVGKFKRVDNGKELIAVREISGNELIQTYTYEGVEAKRIFKKE	1.46	1.31	1.32	1.35	1.49
A73F, L72A: acrylodan-labeled rI-FABP mutein A73F, L72A (protein) AFDGTWKVDRNENYEKFMEKMGINVVKRKLGAHDNLKLTITQEGNKFTVKESSNFRNIDVVFELGVDFAYSAFDGTELTGTWTMEGNKLVGKFKRVDNGKELIAVREISGNELIQTYTYEGVEAKRIFKKE	1.23	1.21	1.13	1.86	0.73
L1P12 F12: acrylodan-labeled rI-FABP mutein: Y14 L, L38 wt, L72 G, Y117 V (protein, UniProt P02693 2-132, looked up, variant Y14L L72G Y117V, acrylodan label, acrylodan-labeled rI-FABP mutein: Y14 L, L38 wt, L72 G, Y117 V) Fatty acid-binding protein, …: AFDGTWKVDRNENLEKFMEKMGINVVKRKLGAHDNLKLTITQEGNKFTVKESSNFRNIDVVFELGVDFAYSGADGTELTGTWTMEGNKLVGKFKRVDNGKELIAVREISGNELIQTVTYEGVEAKRIFKKE	0.5	0.9	0.1	0.5	0.3
A73I, L72A: acrylodan-labeled rI-FABP mutein A73I, L72A (protein) AFDGTWKVDRNENYEKFMEKMGINVVKRKLGAHDNLKLTITQEGNKFTVKESSNFRNIDVVFELGVDFAYSAIDGTELTGTWTMEGNKLVGKFKRVDNGKELIAVREISGNELIQTYTYEGVEAKRIFKKE	−0.04	0.38	−0.04	0.03	−0.04
L1P14 A9: acrylodan-labeled rI-FABP mutein: Y14 L, L38 wt, L72 G, Y117 I (protein, UniProt P02693 2-132, looked up, variant Y14L L72G Y117I, acrylodan label, acrylodan-labeled rI-FABP mutein: Y14 L, L38 wt, L72 G, Y117 I) Fatty acid-binding protein, …: AFDGTWKVDRNENLEKFMEKMGINVVKRKLGAHDNLKLTITQEGNKFTVKESSNFRNIDVVFELGVDFAYSGADGTELTGTWTMEGNKLVGKFKRVDNGKELIAVREISGNELIQTITYEGVEAKRIFKKE	0.8	0.8	0.2	0.8	0.4
L72A: acrylodan-labeled rI-FABP clone with L72A (the template mutein) (protein, listed as Rattus norvegicus, acrylodan label; MUTAGEN (72)...(72) rat intestinal fatty acid binding protein with alanine substitution for leucine at position 72) AFDGTWKVDRNENYEKFMEKMGINVVKRKLGAHDNLKLTITQEGNKFTVKESSNFRNIDVVFELGVDFAYSAADGTELTGTWTMEGNKLVGKFKRVDNGKELIAVREISGNELIQTYTYEGVEAKRIFKKDRGHHHHHH	1.14	1.12	1.02	1.16	1.15
